Data from doi:10.1101/2024.12.16.628271.

What was measured:
[1] = target: Corynebacterium glutamicum PafA (proteasome accessory factor A; Pup ligase) (Corynebacterium glutamicum) (UniProt Q8NQE1); assay: SEC-MALS
[2] = target: Corynebacterium glutamicum PafA (proteasome accessory factor A; Pup ligase) (Corynebacterium glutamicum) (UniProt Q8NQE1); assay: HDX-MS
[3] = target: Corynebacterium glutamicum PafA (proteasome accessory factor A; Pup ligase) (Corynebacterium glutamicum) (UniProt Q8NQE1); assay: SEC

“Corynebacterium glutamicum PafA (proteasome accessory factor A; Pup ligase) (from UniProt Q8NQE1 1-482) (enzyme)” gave a stoichiometry N [1] of 2, an average k open of PafA dimer dissociation (HDX-MS, EX1) [2] of 0.06 h⁻¹ and a Kd [3] of over 1100 µM. For the same substance, the koff [3] was 4.72e-05 s⁻¹.
